# From PMC12284271, “Coupling chromosome organization to genome segregation in Archaea”
# T1: SegB (SegBSs) (Saccharolobus (Sulfolobus) solfataricus P2), ORF:2e81311c
# T1 sequence: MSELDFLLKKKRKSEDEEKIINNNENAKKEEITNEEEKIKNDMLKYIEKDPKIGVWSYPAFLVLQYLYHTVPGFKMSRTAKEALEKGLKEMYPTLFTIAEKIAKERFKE
# T2: SegB (SegBSa) (Sulfolobus acidocaldarius, UniProt Q4JC57 1-151)
# T2 sequence: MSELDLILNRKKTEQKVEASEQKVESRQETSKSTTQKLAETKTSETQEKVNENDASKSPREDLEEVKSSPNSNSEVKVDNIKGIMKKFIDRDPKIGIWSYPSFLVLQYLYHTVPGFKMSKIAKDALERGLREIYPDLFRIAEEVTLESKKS
# B1: saci0204(-47) 50 bp oligonucleotide (dsDNA)
# DNA 1: TTATGAGAAGAATCTGAAATAAAGGGTATAGAGTTAAGAGTCTATATATG
# DNA 2: CATATATAGACTCTTAACTCTATACCCTTTATTTCAGATTCTTCTCATAA
# Tests used:
# [1] = system: T1, SegB (SegBSs) (Saccharolobus (Sulfolobus) solfataricus P2), ORF:2e81311c; experiment: AFM; conditions: EMSA and footprint: 10 mM Tris-HCl pH 7.5, 50 mM KCl, 1 mM DTT, 5 mM MgCl2, 2.5% glycerol, 0.05% NP-40, 1 ug poly(dI-dC), 37 C, 20 min, DNA 1-5 nM
# [2] = system: T1, SegB (SegBSs) (Saccharolobus (Sulfolobus) solfataricus P2), ORF:2e81311c; experiment: DNase I footprinting; conditions: EMSA and footprint: 10 mM Tris-HCl pH 7.5, 50 mM KCl, 1 mM DTT, 5 mM MgCl2, 2.5% glycerol, 0.05% NP-40, 1 ug poly(dI-dC), 37 C, 20 min, DNA 1-5 nM
# [3] = system: T1, SegB (SegBSs) (Saccharolobus (Sulfolobus) solfataricus P2), ORF:2e81311c; experiment: EMSA; conditions: EMSA and footprint: 10 mM Tris-HCl pH 7.5, 50 mM KCl, 1 mM DTT, 5 mM MgCl2, 2.5% glycerol, 0.05% NP-40, 1 ug poly(dI-dC), 37 C, 20 min, DNA 1-5 nM
# [4] = molecular target: SegB (Saccharolobus solfataricus) (S. solfataricus); experiment: MST; SegB labelled with NT-647 at 304 nM final; unlabelled SegA serially diluted 1:1 over fifteen tubes; 10 mM Tris-HCl pH 7.4, 100 mM NaCl, 0.05% Tween 20; 20% LED power, 40% MST power
# SegB (SegBSa) = molecular target: T2, SegB (SegBSa); experiment: EMSA; EMSA and footprint: 10 mM Tris-HCl pH 7.5, 50 mM KCl, 1 mM DTT, 5 mM MgCl2, 2.5% glycerol, 0.05% NP-40, 1 ug poly(dI-dC), 37 C, 20 min; DNA 1-5 nM, SegB 0-1000; conditions: protein: recombinant; (pET22b NdeI/XhoI); chain copies: 2; label: 5' biotin on strand 1; blunt
Molecule,binding [2],binding [3],also measured
"AGTAAGATAAATTTACTGAAGTCGTTGTTTTGCCTACTCCTCCTTTCTGATTTATTACTGTGACTATCATGTCTAGACTCTTCTATCTATAACGTTTAATAAGGAATTCTACATGATAATACTGACGAGTCCACCATATTATAATGATAATATTTATATGCTAGATTTTTAAAAAGTATAAGTATGTTTGAGAAGCTCTATAGTGCAATAATTTATTCTGATGAATTTAAAAAAATACTATTGGGAAGAGGTGTAGATGACTTAGAGATAGCTTCAGCCTACATAGCGT (double strand) [289 bp segAB upstream fragment (sites 1, 2, 3)]",–,–,binding [1]: binds
CTCAGCTGTCGGTAATACGATTTAGAAAGGATGAAATCGCTTATTCAATTTACTCTAATAAGCGACTAGAGTCTATAAGAAACACTCTAGAGTATTCTACCATAGAGGGAGAAGGCTTATTCAATGGATGCATTCTATGCGGTAAATGTGTTAGTGTTTGCCCTTACGGTAAACAAACTAATGACGTATTCCATACTCCT (double strand) [peak B-3 fragment],binds,binds,–
GAATGTCACAAGGTTCTTTTCCTATATACTTAAAACAAGAGAAAAGTAGAGAAATATTCTATTATACTCTCTTTTTCCTAAATTTTAATCTTAAACTTAAGGGAAGTAGAGTCTAGACTCACGTTAGGGTATGAAATTATCTCATCCTAATTTTTATTTGGCATAACGCTAATATGAAAAACATAAATAGTTAGAGTGTT (double strand) [peak D fragment],binds,binds,–
GCATCTATGGCATCTGAATTGGGTATATAACCATATTCTACTTCTATTCCCATATCTTCATCACTAACGTAGAGATCAAGTAGTTTTCCTTTCTTCTCATACTCCACGAATACTCTATAGCCTAGACTCTTGAAGTAAGCAGATAATATTAATTGTAGACTGGAGTGGTTAATATTTGTGAATCCTAATTCATAAAAATC (double strand) [peak B-5 fragment],binds,binds,–
GCTCGTAATTGAGGCCAAAATTCACAAAAATGATTACCTACAGACTCTAGAGTACTCTAAATATTTCAAGTACGGTATGGCAGTATTTCCATTTACTGGAGAGTGTAGAGTACCTAAAGGTTGGATTTGTATATTTAACACCACAAAGGATCAGTCTAGATTCTACTCTCTTCTTGAAGATTTATTATCTAGAGTTAAGT (double strand) [peak B-6 fragment],binds,binds,–
SegA (Saccharolobus solfataricus) (natural protein),–,–,Kd [4]: 46 nM
B1,–,–,binding result (SegB (SegBSa)): binds
